Among the data in PMC7849368 (Genes & Development, 2021) are Kd values, retold here.

The target in this experiment is T1, Esc2, purified, as used in microscale thermophoresis (budding yeast, UniProt Q06340 1-456).
T1 sequence: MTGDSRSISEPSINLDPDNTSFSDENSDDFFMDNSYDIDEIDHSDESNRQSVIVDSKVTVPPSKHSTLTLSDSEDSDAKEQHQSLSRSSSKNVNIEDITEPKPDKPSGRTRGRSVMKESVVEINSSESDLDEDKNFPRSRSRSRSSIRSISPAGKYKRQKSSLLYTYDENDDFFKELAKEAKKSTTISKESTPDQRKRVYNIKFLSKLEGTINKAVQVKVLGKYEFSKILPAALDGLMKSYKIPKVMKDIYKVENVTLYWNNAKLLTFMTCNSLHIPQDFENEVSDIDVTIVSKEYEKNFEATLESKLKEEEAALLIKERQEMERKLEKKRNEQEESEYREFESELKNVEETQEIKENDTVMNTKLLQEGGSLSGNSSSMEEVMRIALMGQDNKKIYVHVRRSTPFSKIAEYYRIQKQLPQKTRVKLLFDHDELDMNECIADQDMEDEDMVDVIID
The experiment can be described thus: MST.

B1: Ubc9, purified (enzyme)
chain: MSSLCLQRLQEERKKWRKDHPFGFYAKPVKKADGSMDLQKWEAGIPGKEGTNWAGGVYPITVEYPNEYPSKPPKVKFPAGFYHPNVYPSGTICLSILNEDQDWRPAITLKQIVLGVQDLLDSPNPNSPAQEPAWRSFSRNKAEYDKKVLLQAKQYSK
modifications: RED-tris-NTA dye on the His tag (MST only)
Take B1: the Kd (as a rule, the equilibrium constant for the complex coming apart) stood at 0.372 µM.
